Data: patent US20190185531A1 (published 2019)

B1: PUMA/FS2 chimeric peptide: PUMA with larger residues at positions A2 and E2 (peptide)
peptide: Ac-QWVREIAAQLRRMADDLNAQYER-NH2
B2: Puma BH3 peptide (23 residues) (peptide)
peptide: Ac-QWAREIGAQLRRMADDLNAQYER-NH2
B3: FS2 (peptide)
peptide: Ac-QWVREIAAGLRRAADDVNAQVER-NH2
B4: PUMA/FS2 chimeric peptide: PUMA with smaller residues at positions G2, D3, A4 and E4 (peptide)
peptide: Ac-QWAREIGAGLRRAADDVNAQVER-NH2
B5: FS1 (peptide)
peptide: Ac-QWVREIAAGLRLAADNVNAQLER-NH2
B6: FS3 (peptide)
peptide: Ac-QWIREIAAGLRRFADILNAQVER-NH2

Biological target: T1, human Bfl-1 (c-myc-tagged) (human, UniProt Q16548 1-151)
T1 chain: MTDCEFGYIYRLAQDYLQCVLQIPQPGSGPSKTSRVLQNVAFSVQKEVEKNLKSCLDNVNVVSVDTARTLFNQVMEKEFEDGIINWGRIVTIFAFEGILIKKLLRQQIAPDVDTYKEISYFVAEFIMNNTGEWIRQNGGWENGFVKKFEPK
Test: fluorescence anisotropy competition

| Binder | Ki |
| --- | --- |
| B1 | 2.1 nM |
| B2 | 4.8 nM |
| B3 | 21 nM |
| B4 | 600 nM |

Biological target: T1, human Bfl-1 (c-myc-tagged)
Test: anisotropy

| Binder | Ki |
| --- | --- |
| B5 | 16.4 nM |

Biological target: T2, human Mcl-1 (c-myc-tagged) (human, UniProt Q07820 172-327)
T2 chain: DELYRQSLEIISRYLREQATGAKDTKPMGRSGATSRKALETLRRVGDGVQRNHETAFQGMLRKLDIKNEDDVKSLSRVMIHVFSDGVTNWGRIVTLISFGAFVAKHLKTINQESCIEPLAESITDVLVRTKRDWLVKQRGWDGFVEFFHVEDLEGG
Test: fluorescence anisotropy competition

| Binder | Ki |
| --- | --- |
| B6 | 711 nM |
| B2 | 2.7 nM |
| B3 | 2580 nM |
| B5 | > 5000 nM |

What follows are binders tested against Bcl-xL (c-myc-tagged) (human, UniProt Q07817 1-209) (assay: fluorescence anisotropy competition).
Chain of Bcl-xL (c-myc-tagged) (Q07817 1-209): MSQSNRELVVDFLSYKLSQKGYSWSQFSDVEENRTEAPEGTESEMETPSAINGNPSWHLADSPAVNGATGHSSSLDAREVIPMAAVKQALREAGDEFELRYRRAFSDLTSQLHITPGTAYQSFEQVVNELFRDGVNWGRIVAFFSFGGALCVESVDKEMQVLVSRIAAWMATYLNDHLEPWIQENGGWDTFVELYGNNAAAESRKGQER

| Binder | Ki |
| --- | --- |
| B6 | 105 nM |
| B3 | 7340 nM |
| B5 | 2720 nM |

These binders were tested against Bcl-2 (c-myc-tagged) (human, UniProt P10415 1-217) (assay: fluorescence anisotropy competition).
Chain of Bcl-2 (c-myc-tagged) (P10415 1-217): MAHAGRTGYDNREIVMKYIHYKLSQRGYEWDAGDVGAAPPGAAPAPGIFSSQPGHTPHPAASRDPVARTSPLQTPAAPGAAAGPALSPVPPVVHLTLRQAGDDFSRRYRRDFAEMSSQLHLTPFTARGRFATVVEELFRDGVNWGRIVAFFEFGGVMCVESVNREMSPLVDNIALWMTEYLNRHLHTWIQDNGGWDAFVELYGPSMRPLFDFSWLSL

| Binder | Ki |
| --- | --- |
| B6 | 2360 nM |
| B3 | 2450 nM |
| B5 | 6940 nM |

Biological target: T1, human Bfl-1 (c-myc-tagged)
Test: fluorescence anisotropy competition
Remark: another data set of the same source

| Binder | Ki |
| --- | --- |
| B6 | 2.1 nM |
| B2 | 5.1 nM |
| B3 | 24.8 nM |

Biological target: T3, Bcl-w (c-myc-tagged) (human, UniProt Q92843 1-164)
T3 chain: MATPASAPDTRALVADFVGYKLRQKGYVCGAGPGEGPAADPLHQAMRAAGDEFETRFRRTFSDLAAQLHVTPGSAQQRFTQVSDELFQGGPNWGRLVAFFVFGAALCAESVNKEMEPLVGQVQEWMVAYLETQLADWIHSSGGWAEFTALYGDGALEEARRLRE
Test: fluorescence anisotropy competition

| Binder | Ki |
| --- | --- |
| B6 | 828 nM |
| B2 | 6 nM |
| B3 | 7210 nM |
| B5 | 8880 nM |
